The record followed here is publication PMC9998502, “Functional selectivity of EM-2 analogs at the mu-opioid receptor” (Frontiers in Pharmacology, 2023).

In assay [1] the target is human delta opioid receptor (human) (UniProt P41143).
The target in assay [2] is human kappa opioid receptor (human) (UniProt P41145). The experiment in a line: radioligand binding; displacement of [3H]U-69593 from commercial membranes of CHO cells transfected with the human recombinant kappa opioid receptor; Ki, mean ± SEM, n ≥ 3.
Assay [3] has as its target human delta opioid receptor (human) (UniProt P41143). In words: radioligand binding; displacement of [3H]deltorphin-2 from commercial membranes of CHO cells transfected with the human recombinant delta opioid receptor; Ki, mean ± SEM, n ≥ 3.
Assay [4] deals with human mu opioid receptor (human) (UniProt P35372). The experiment in a line: radioligand binding; displacement of [3H]DAMGO from commercial membranes of CHO cells transfected with the human recombinant mu opioid receptor; Ki, mean ± SEM, n ≥ 3.
In assay [5] the target is RLuc-tethered human mu receptor fusion protein (human) (UniProt P35372).
The target of assay [6] is human mu opioid receptor (human) (UniProt P35372).
Assay [7] deals with human kappa opioid receptor (human) (UniProt P41145).

Consider DPDPE (peptide), for which the calcium mobilization, CHO cells with delta receptor and GαqG66Di5: α (Emax ratio to the standard agonist) in assay [1] is 1.
As to “EM-2 analog 1 (Dmt-Pro-Phe-Phe-NH2) (peptide)”, the Ki in assay [2] was determined as 830 nM; in assay [3], 560 nM.
In the case of “EM-2 analog 2 (Tyr-(R)-Pip-Phe-Phe-NH2) (peptide)”, the results for the Ki in assay [2], in assay [3] and in assay [4] were more than 1000 nM, 682 nM and 17.7 nM, respectively. In assay [5], this substance yielded a BRET of mu-RLuc with Gβ1-RGFP promoted by the peptide, SH-SY5Y membranes: Emax (EM-2 = 1.00) of 0.83. Besides, the calcium mobilization, CHO cells with human mu receptor and Gαqi5: α (Emax ratio to the standard agonist) in assay [6] was found to be 0.64.
As to “EM-2 analog 3 (Dmt-(R)-Pip-Phe-Phe-NH2) (peptide)”, the values for the inhibition constant Ki in assay [2], in assay [3] and in assay [4] were 72 nM, 37 nM and 3.92 nM, respectively. This substance returned a BRET of mu-RLuc with Gβ1-RGFP promoted by the peptide, SH-SY5Y membranes: Emax (EM-2 = 1.00) in assay [5] of 0.83. Further, the calcium mobilization, CHO cells with human mu receptor and Gαqi5: α (Emax ratio to the standard agonist) in assay [6] was found to be 0.7. Besides, the calcium mobilization, CHO cells with delta receptor and GαqG66Di5: α (Emax ratio to the standard agonist) in assay [1] turned out to be 0.56.
“EM-2 analog 4 (Tyr-(R)-Nip-Phe-Phe-NH2) (peptide)”: the Ki in assay [2] is more than 1000 nM; in assay [3], more than 1000 nM; in assay [4] it was 0.85 nM. Besides, the BRET of mu-RLuc with Gβ1-RGFP promoted by the peptide, SH-SY5Y membranes: Emax (EM-2 = 1.00) in assay [5] came out at 1.11. Besides, the BRET of mu-RLuc with β-arrestin 2-RGFP promoted by the peptide, living SH-SY5Y cells: Emax (EM-2 = 1.00) in assay [5] amounted to 1.3. In addition, the calcium mobilization, CHO cells with human mu receptor and Gαqi5: α (Emax ratio to the standard agonist) in assay [6] came to 0.99.
For the substance “EM-2 analog 5 (Dmt-(R)-Nip-Phe-Phe-NH2) (peptide)”, the Ki amounted to 567 nM in assay [2], 589 nM in assay [3] and 0.14 nM in assay [4]. Moreover, in assay [5], the BRET of mu-RLuc with Gβ1-RGFP promoted by the peptide, SH-SY5Y membranes: Emax (EM-2 = 1.00) turned out to be 1.11. This substance registered a BRET of mu-RLuc with β-arrestin 2-RGFP promoted by the peptide, living SH-SY5Y cells: Emax (EM-2 = 1.00) in assay [5] of 1.26. Moreover, the calcium mobilization, CHO cells with human mu receptor and Gαqi5: α (Emax ratio to the standard agonist) in assay [6] was found to be 1.
In the case of “EM-2 analog 6 (Tyr-(R)-β2-Ala-Phe-Phe-NH2) (peptide)”, the inhibition constant (Ki) was more than 1000 nM in assay [2], more than 1000 nM in assay [3] and 46.8 nM in assay [4]. Also, the BRET of mu-RLuc with Gβ1-RGFP promoted by the peptide, SH-SY5Y membranes: Emax (EM-2 = 1.00) in assay [5] was determined as 0.86. In assay [5], this substance came in with a BRET of mu-RLuc with β-arrestin 2-RGFP promoted by the peptide, living SH-SY5Y cells: Emax (EM-2 = 1.00), forced to 1 of 1. Besides, the calcium mobilization, CHO cells with human mu receptor and Gαqi5: α (Emax ratio to the standard agonist) in assay [6] came out at 0.88.
Turning to “EM-2 analog 7 (Dmt-(R)-β2-Ala-Phe-Phe-NH2) (peptide)”, the values for the Ki in assay [2], in assay [3] and in assay [4] were 807 nM, 571 nM and 0.31 nM, respectively. Further, the BRET of mu-RLuc with Gβ1-RGFP promoted by the peptide, SH-SY5Y membranes: Emax (EM-2 = 1.00) in assay [5] was 0.98. In assay [5], this substance registered a BRET of mu-RLuc with β-arrestin 2-RGFP promoted by the peptide, living SH-SY5Y cells: Emax (EM-2 = 1.00) of 0.61. In assay [6], the calcium mobilization, CHO cells with human mu receptor and Gαqi5: α (Emax ratio to the standard agonist) is 0.95.
For “EM-2 analog 8 (Tyr-(R)-β3-Ala-Phe-Phe-NH2) (peptide)”, the inhibition constant (Ki) in assay [2] is more than 1000 nM; in assay [3], more than 1000 nM; in assay [4], 0.44 nM. The substance also yielded a BRET of mu-RLuc with Gβ1-RGFP promoted by the peptide, SH-SY5Y membranes: Emax (EM-2 = 1.00) in assay [5] of 0.96. Further, the BRET of mu-RLuc with β-arrestin 2-RGFP promoted by the peptide, living SH-SY5Y cells: Emax (EM-2 = 1.00) in assay [5] was 1.12. Also, in assay [6], the calcium mobilization, CHO cells with human mu receptor and Gαqi5: α (Emax ratio to the standard agonist) amounted to 0.99.
Turning to “EM-2 analog 9 (Dmt-(R)-β3-Ala-Phe-Phe-NH2) (peptide)”, the Ki in assay [2] turned out to be 890 nM; in assay [3] it was 286 nM; in assay [4] it was 0.14 nM. In assay [5], this substance displayed a BRET of mu-RLuc with Gβ1-RGFP promoted by the peptide, SH-SY5Y membranes: Emax (EM-2 = 1.00) of 1.05. In addition, the BRET of mu-RLuc with β-arrestin 2-RGFP promoted by the peptide, living SH-SY5Y cells: Emax (EM-2 = 1.00) in assay [5] came out at 1.16. The calcium mobilization, CHO cells with human mu receptor and Gαqi5: α (Emax ratio to the standard agonist) in assay [6] was determined as 1.
As to “EM-2 analog 10 (Tyr-Pro-(R)-β2-1-Nal-Phe-NH2) (peptide)”, the BRET of mu-RLuc with Gβ1-RGFP promoted by the peptide, SH-SY5Y membranes: Emax (EM-2 = 1.00) in assay [5] stood at 0.68.
Same read-out and setting: for “EM-2 analog 11 (Dmt-Pro-(R)-β2-1-Nal-Phe-NH2) (peptide)” the value was 0.81.
“EM-2 analog 12 (Tyr-Pro-(R)-β3-1-Nal-Phe-NH2) (peptide)”: in assay [5], the BRET of mu-RLuc with Gβ1-RGFP promoted by the peptide, SH-SY5Y membranes: Emax (EM-2 = 1.00) stood at 0.96 and the BRET of mu-RLuc with β-arrestin 2-RGFP promoted by the peptide, living SH-SY5Y cells: Emax (EM-2 = 1.00) is 0.73.
In the same order, the values of “EM-2 analog 13 (Dmt-Pro-(R)-β3-1-Nal-Phe-NH2) (peptide)” are 0.84 and 0.37.
Consider dynorphin A (peptide), for which the calcium mobilization, CHO cells with human kappa receptor and Gαqi5: α (Emax ratio to the standard agonist) in assay [7] stood at 1.
With “endomorphin-2 (Tyr-Pro-Phe-Phe-NH2) (peptide)”, the Ki in assay [2] and in assay [3] was more than 1000 nM in each case.
